This note sets out measurements from the nanobody polyreactivity screen of Harvey et al. (2022).

The data set is described as follows: yeast display, Sf9 membrane polyspecificity reagent, FACS + sequencing; frameworks hold sequencing errors. Summed up: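 Galactose-induced (36–48 hours) yeast carrying a synthetic nanobody display library were exposed to 10% biotinylated, detergent-solubilized Sf9 membrane reagent at 4 °C for 1 hour. FACS followed streptavidin microbead enrichment, using low and high (top ~1%) gates for expression (anti-HA) and reagent binding (streptavidin). Colony PCR, MiSeq 2 × 250 sequencing and CDR-length filtering followed. Labels for polyreactivity reflect the gate of origin.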
As for “QVQLVESGGGLVQAGGILRLSCAASGFIFVDYVMGWSRQAPGKERELVAAINRNGGRPYYADSVKGRFTISRDNEKNTVYLQMNRLKPEDTAVYYCAAVYRSDRYHWYYYWGQGTQVTVSS”, the “polyreactivity (PSR sort gate)” value is on record as “high polyreactivity”.

For the sequence “QVQLVESGGGLVQAGGSLRLSCAASGSTFESYDMGWYRPAPGKERELVAAIDWSGGITYYADSVKGRFTISRDNAKNTVYLQMNSLKPEDTAVYYCNADWFVRYPKRVYWSEYDYWGHGTQVTVSS”, the “polyreactivity (PSR sort gate)” value is listed as “low polyreactivity”.

As for “QVQLVESGGGLVQAGGSLRLSCAASGSIFLYNTKGWYRQAPGKERELVAAISFSGVTTYYADSVKGRFTISRDNAKNTVYLQMNSLKPEDTAVYYCNKYLWKFTNSPLGDYYWGQGTQVTVSS”, the “polyreactivity (PSR sort gate)” value is on record as “high polyreactivity”.

“QVQLVESGGGLVQAGGSLRLSCAASGFTLYEYAMGWYRQAPGKERELVAAISSAGNTNYADSVKGRFTISRDNAKNTVYLQLNSLKPEDTAVYYCAKYRYDYTKTEGGYWGQGTQVTVSS”: the “polyreactivity (PSR sort gate)” value was “low polyreactivity”.

“QVQLVESGGGLVQAGGSLRLSCAASGSIFRYYAMGGYIQAPGKERELVAAISGDSGRTYYADSVKGRFTISRDNAKNTVYFQMNSLNPDDTAVYYCNARVAYRYRTGYDYWGQGTQVTVSS”: the “polyreactivity (PSR sort gate)” value is reported as “high polyreactivity”.

As for “QVHLVESGGGLVQAGGSLRLSCAASGITFNSYAMGWYRQAPGKERDLDASISWIGGSTYYADSVKGRFTISRDNAKNTVYLQINSLKPDDTAVYYCAVDKGTDYYYDVDYWGQGTQVTVSS”, the “polyreactivity (PSR sort gate)” value is “low polyreactivity”.

With “QVQLVESGGGLVQAGGSLRLSCAASGRTFWKYAMGWYRQAPGKERELVAAISSSGGNTYYADSVKGRFTISRDNAKNSVYLQMNSLKPEDTAVYYCAARLPRGAYYYWGQGTQVTVSS”, the “polyreactivity (PSR sort gate)” value was “high polyreactivity”.

With “QVQLVESGGGLVQAGGSLRLSCAASGNTIDRYDMGWYRQPPGKEREFVAAITASAGSTYADSVKGRFTISRDNAKNTVYLQMNSLKPEDSAVYYCNAGNSSTGVDRYDYWGQGTQVTVSS”, the “polyreactivity (PSR sort gate)” value is “low polyreactivity”.

Turning to “QVQLEESGGCLVQAGGSLRLSCAASGFTFYQNAMGWYRQAPGKERELVAAISSGASTYYADSVKGRFTISRDNAKNTVYLQMNSLKPEDTAVYYCAADRYKPSLRWRRPKMNYWGQGTQVTVSS”, the “polyreactivity (PSR sort gate)” value is reported as “high polyreactivity”.

Take “QVQLVESGGGLVQAGGSLRLSCAASGNTFRGYAMGWSRQAPGKEMELVAAITSGGRTYYADSVKGRFTISRDNAKNTVYLQMNSLKPEDTAVYYCNARQFAGDEWGQGTLVTVSS”: the “polyreactivity (PSR sort gate)” value is “high polyreactivity”.

Take “QVQLVESGGGLVQAGGSLRLSCAASGRTFKYNAMGWYRQAPGKERELVAAIRKSGTRTYYADSVKGRFTISRDNAKNTVYLQMNSLKPEDTAVYYCNRVGFDYWGQGTQVTVSS”: the “polyreactivity (PSR sort gate)” value is listed as “low polyreactivity”.

Take “QVQLVESGGGVVQAGGSLRLSCAASGRIFSVYAMVWYRQAPGKEREFVGSISWRGGRTYYADSVKGRFTISRDNAKNTVYLQMISLKPEDTAVYYCAAVSYPAVYGFDYWGQGTQVTVSS”: the “polyreactivity (PSR sort gate)” value is reported as “high polyreactivity”.

With “QVQLVESGGGLVQAGGSLRLSCAASGSTFLWYAMGWYTQAPGKERELVATISGSGGSTYYADSVKGRFTISRDNAKNTVYLQMNSLKPEDTAGYYCAAGTLVQRSRWVTFSAYDGDYWGQGTQVTVSS”, the “polyreactivity (PSR sort gate)” value was “high polyreactivity”.

With “QVHLVESGGGLVQAGGSLRLSCAASGSIFSRNAMGWYRQAPGKERELVAAISRGANTYYADSVKGRFTISRDNAKNTVYLQMNSLKPEDTAVYYCNAGSRSRYEGGYWGQGTQVTVSS”, the “polyreactivity (PSR sort gate)” value is “high polyreactivity”.

“QVQLVESGGVLVQAGGSLRLSCAASGSIFRTNVMGWYSQAPGKEREMVASISSDSSTNYADSVKGRFTISRDNEKNTVYLQMNSLKPEDTAVYYCAKDPVVTEHYYWGQGTQVTVSS”: the “polyreactivity (PSR sort gate)” value is listed as “low polyreactivity”.

With “QVQLVESGGGLVQAGGSLRLSCAASGGTFPYNAMGWYRQAPGKERELVAAISSSGTSTYYADSVKGRFTISRDNAKNTVYLQMNSLKPEDTAVYYCNDYFKRYDYWGQGTQVTVSS”, the “polyreactivity (PSR sort gate)” value was “high polyreactivity”.

With “QVQLVESGGGLVQAGGSLRLSCAASGIIFVYYTMGWYRQAPGKERELVAAITSGGSTYYADSVKGRFTISRDNAKNTVYLQMNSLKPEDTAVYYCAAVGRPPYAGDRGYWGQGTQVTVSS”, the “polyreactivity (PSR sort gate)” value is recorded as “high polyreactivity”.

For “QVQLVESGGGLVQAGGSLRLSCAASGSISYYNAMGWYRQAPGKERELVAAITYSAGGTYYADSVKGRFTISRDNAKNTVYLQMNSLKPEDTAVYYCAADAYKHVAYGGVYWYYYWGLGTQVTVSS”, the “polyreactivity (PSR sort gate)” value is given as “high polyreactivity”.

For “QVQNVDSGGGLVQAGGSLRLSCPPSGISYRGYAMGWYRQAPGKERELVAAISVRGASTYYAASVKGRFTISRDNAKYTVYLPMNSLKPEDTAVYYCGATRPSWRYNYWGQGTEVTVSS”, the “polyreactivity (PSR sort gate)” value is “high polyreactivity”.

Turning to “QVQLEESGGGLVQAGGSLRLSCAASGRTFWDNARGWNRQAPGKERELVATITSGDSTNYAASVKGRFTISRDNAKNTVYLQMNSLKPEDTAVYYCARVIVFDAYEFDYWGQGTQVTVSS”, the “polyreactivity (PSR sort gate)” value is on record as “low polyreactivity”.

“QVQLVESGGGLVQAGGTLRLSCAASGFTFGYYAMGWYRPAPGKERELVAAISSRGGTTYYADSVKGRFTISRDNAKNTVYLQMNSLKPEDTAVYYCAKDSFRNIYNYWGQGTQVTVSS”: the “polyreactivity (PSR sort gate)” value is listed as “high polyreactivity”.

Take “QVQLVESGGGLVQEGGSLRLSCAASGLIFSEYAMGWSRQAPGKERELVAAIRSDGGSTYYADSVKGRFTISRDNAKNSVYLQMNSLKPEDTAVYYCNAPYRRSAKFRRYGYDYLGQGTQVTVSS”: the “polyreactivity (PSR sort gate)” value was “high polyreactivity”.

On to “QVQLVESGGGLVQAGGSLRLSCAASGSTFRKNAMGWYRQAPGKERELVAAITYSGGGTYYADSVKGRFTISRDNAKNTVYLQMNSLKPEDTAVYYCAAERNKYAPYYYWGQGTQVTVSS”, for which the “polyreactivity (PSR sort gate)” value is listed as “high polyreactivity”.

For the sequence “QLQLVETGGGLVQAGGSLRLSCAASGSIIAKNAKGWYSQAPGTDRELVAAISKSGGITYYADSVKGRFSISRDNAKNTVYLQINSLKPEDTAVYYCNALSAGYIGVASRYYYWGQGTQVTVSS”, the “polyreactivity (PSR sort gate)” value is given as “high polyreactivity”.

On to “QVQLVESGGGLVQAGGSLRLSCAASGSTFGKNAMGWYRQAPGKERELVAAITRRGGSTNYADSVKGRFTISRDNAKNTVYLQINSLKPEDTAVYYCAASWGRTSSKPFDYWGQGTQVTVSS”, for which the “polyreactivity (PSR sort gate)” value is recorded as “high polyreactivity”.

In the case of “QFQLVDSGRGLVQAGGSLRVSCAASGITFAYYAMGWYRQAPGKERELVAAISRSGGGTYYADSVKGRFTISRDNAKNPVYLQMNSLKPEDTAVYYCNKDYPYYYAGDGRFDYWGQGTQVTVSS”, the “polyreactivity (PSR sort gate)” value is “high polyreactivity”.

Turning to “QVQLVESGGGLVQAGGSLRLSCAASGFTFYLYAMGWYRQAPGKERELVAAITWSGGRTYYADSVKGRFTISRDNAKNTVYLQMNSLKPEDTAVYYCAAVVRKQLSAPSDYWGQGTQVTVSS”, the “polyreactivity (PSR sort gate)” value is listed as “high polyreactivity”.

Regarding “QVQLVESGGGLVQAGGSLRLSCAASGRIFTAYTMGWYRQAPGKERELVAAISTSGTSTYYADSVKGRFTISRDNAKNTVYLQMHSLKPEDTAVYYCATDYYYYPHSQYDYWGQGTQVTVSS”, the “polyreactivity (PSR sort gate)” value is on record as “low polyreactivity”.

As for “QVQLVESGGGLVQAGGSLRLSCAASGNIFFGNTMGWYRQAPGKERELVAAISRSGGSTYYADSVKGRFTISRDNAKNTVYLQMNSLKPEDTAVYYCAAEYYGWPYDSWGQGTQVTVSS”, the “polyreactivity (PSR sort gate)” value is reported as “high polyreactivity”.

Take “QVQLVESGGGLVQAGGSLRLSCAASGRIFTRYAMGWYRQAPGKERELVATITKSGGSTYYADSVKGRFTISRDNAKNTVSLQMNSQKPDDTAVYYCAADSWWTYQYDYWGQGTQVTVSS”: the “polyreactivity (PSR sort gate)” value is on record as “low polyreactivity”.

For “QVQLVESRGGLVQAGGSLRLSCAASGYIINAYARGWYRQAPGKERELVAAISWSSDSTYYADSVKGRFTISRDIAKNTVYLQMNSLKPEVTAVYYCAAPYITPYGTYVFSSDYWGQGTQVTVSS”, the “polyreactivity (PSR sort gate)” value is recorded as “low polyreactivity”.

As to “QVQLVESGGGLVQAGGSLRLSCAASGSTFKYYAKGWYRQAPGKERELVAAISASGGTTYYADSVKGRFTISRDNAKNTVYLQMNSLKPEDTAVYYCAARYLTTFSRTDMEYWGQGTQVTVSS”, the “polyreactivity (PSR sort gate)” value is “low polyreactivity”.

Take “QVQLVESGGGLVQAGGSLRLSCAASGIIFQYYAMGWYRQAPGKERELVAAITSSGGSTFYADSVKGRFTISRDNSKNTVYLQMNSLKPEDTAVFYCAGVYHRSTYDYWGQGTQVTVSS”: the “polyreactivity (PSR sort gate)” value is on record as “high polyreactivity”.

Consider “QVQLVESGGGLVQAGGSLRLSCADSGFTFYLYAMGWYRQAPGKERALVAAITGSGGSKYYADSVKGRFTISRYNAKNTVYLQMNSLKPEDTAVYYCAAVFKDSRYQYGFGYDYWGQGTQVTVSS”, for which the “polyreactivity (PSR sort gate)” value is listed as “high polyreactivity”.

Consider “QVQLVESGGGLVQAGGSLRLSCAASGSTFQLYAMGWYRQAPGKERELVAAISGIGDSTYYADSVKGRFTISRDNAKNTVYLQMNSLKPEDTAVYYCAREFSDGLSGKFDYWGQGTQVTVSS”, for which the “polyreactivity (PSR sort gate)” value is listed as “low polyreactivity”.

Take “QVQLVESGGGLDQAGGSLRLSCAASGYTYGYYAMGWYRQAPGKERELVATISYSGGTTYYADSVRGRFTISRDNAKNTVYLQMNSLKPEDTAVYYCNARGYKRLYGYWVQGTQVTVSS”: the “polyreactivity (PSR sort gate)” value is given as “high polyreactivity”.

“QVQLVESGGGLVQAGGSLRLSCAASGRTFRYYSMGWYRQAPGKERELVAAITGSGARTYYADSVKGRFTISRDNAKNTVYLQMNSLKPEDTAVYYCAADSLFYDDRYDYWGQGTQVTVSS”: the “polyreactivity (PSR sort gate)” value is “high polyreactivity”.

Take “QVQLVESGGGLVQAGGSLRLSCAASGIIFASNAMGWYRQTPGKERELVAAISGSGGRTYYADSVKGRFTISRDNAKNTVYLQMNSLKPDDTAVYYGAAARANNYDYWGQGTQVTVSS”: the “polyreactivity (PSR sort gate)” value is “high polyreactivity”.

Regarding “QVQLVESGGGLDQARGSLRLSCAASGSNFRYYAIGGYRPAHGKERELVASITGSGGRTYYADSVKGRFTISLDNAKNTVYLQMNSLKPEDTAVYYCAVPYHQGNMDYWGQGTQVTVSS”, the “polyreactivity (PSR sort gate)” value is “high polyreactivity”.

On to “QVQLVESGGGLVQAGGRLRLSCAASGSTFQQYGMGWYRQAPGKERELVAAISGGVSTYYADSLKGLFTISRDHAKNTVYLQMYSLKPEDTAVYYCNADTSYSEWGSWYYEYDYWGQGTQVTVSS”, for which the “polyreactivity (PSR sort gate)” value is given as “low polyreactivity”.

As to “QVQLVESGGGLVQAGGSLRLSCAASGGTFKSAYVMGWYRQAPGKERELVAAIDSTGSTNYADSVKGRFTISRDNAKNTVYLQMNSLKPEDTAVYYCNADRRELYYDPMDYWGQGTQVTVSS”, the “polyreactivity (PSR sort gate)” value was “low polyreactivity”.
